Like-named read-outs stand apart in the source and are kept apart here. Starred links: 1 amine or outer side, 2 acyl side, 3 side chain; linkers in the order of their positions; H or OH if unused. Non-standard residues stand in square brackets, D forms with d. No end group written: not given here. *: point of attachment. Propanoyl(3-indol-3-yl) = O=C(CCc1c[nH]c2ccccc12)*; Phe(F5) = N[C@@H](Cc1c(F)c(F)c(F)c(F)c1F)C(=O)O; Tyr(Me) = COc1ccc(C[C@H](N[*:1])C(=O)[*:2])cc1; Phe(4-NH2) = Nc1ccc(C[C@H](N)C(=O)O)cc1; Arg(Me) = CNC(=N)NCCC[C@H](N)C(=O)O; Fmoc = O=C(OCC1c2ccccc2-c2ccccc21)*; 4Pal = N[C@@H](Cc1ccncc1)C(=O)O; Cha = N[C@@H](CC1CCCCC1)C(=O)O; azaGly = NNC(=O)O
Assays:
[1] = target: T1, human OT7T175 (metastin receptor) (human, UniProt Q969F8 1-398); assay: competition with Cy-5 metastin (40-54) on hOT7T175-CHO cells, FMAT
T1 construct: expressed on CHO cells; also called hOT7T175; hOT7T175-expressed CHO cells

[2] = target: T1, human OT7T175 (metastin receptor); assay: cell-based or functional assay
[3] = target: T1, human OT7T175 (metastin receptor); assay: cell-based or functional assay; remark: listed apart in the source
[4] = target: T1, human OT7T175 (metastin receptor); assay: cell-based or functional assay; remark: listed apart in the source
[5] = target: T1, human OT7T175 (metastin receptor); assay: cell-based or functional assay; remark: listed apart in the source

T1 sequence (Q969F8 whole entry L364H): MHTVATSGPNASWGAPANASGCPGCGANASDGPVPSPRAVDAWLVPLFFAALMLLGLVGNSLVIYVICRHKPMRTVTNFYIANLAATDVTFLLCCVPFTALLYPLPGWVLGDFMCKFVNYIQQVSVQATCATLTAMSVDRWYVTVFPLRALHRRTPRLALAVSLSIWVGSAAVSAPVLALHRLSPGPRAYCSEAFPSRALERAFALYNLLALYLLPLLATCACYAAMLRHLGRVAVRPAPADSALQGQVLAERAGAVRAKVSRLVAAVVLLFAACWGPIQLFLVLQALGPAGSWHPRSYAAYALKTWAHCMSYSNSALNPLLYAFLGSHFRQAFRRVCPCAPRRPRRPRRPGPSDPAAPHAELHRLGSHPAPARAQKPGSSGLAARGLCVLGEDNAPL

Binder | IC50 [1] | Ca ion level-increasing activity (FLIPR) [2] | Ca ion level-increasing activity (FLIPR, 40 s) [3] | cell growth inhibition activity, IC50 [4] | Ca ion level-increasing activity (FLIPR) [5]
YNWNSFGLR[Phe(4-NH2)]-NH2 (also called Compound No. 131) [[Phe(4NH2)10]MS10] | 120 nM | 3 x Metastin (1-54) | – | – | –
[dY]NWNSFGLRF-NH2 [[D-Tyr1]MS10] | – | 30 x Metastin (1-54) | 1.6 EC50/MS10 EC50 | – | –
[dY]NANSFGL[Arg(Me)]F-NH2 (N-terminus assumed; SMILES CNC(=N)NCCC[C@H](NC(=O)[C@H](CC(C)C)NC(=O)CNC(=O)[C@H](Cc1ccccc1)NC(=O)[C@H](CO)NC(=O)[C@H](CC(N)=O)NC(=O)[C@H](C)NC(=O)[C@H](CC(N)=O)NC(=O)[C@H](N)Cc1ccc(O)cc1)C(=O)N[C@@H](Cc1ccccc1)C(N)=O, also called Compound No. 169) [[D-Tyr1,Ala3,Arg(Me)9]MS10] | 160 nM | 2 x Metastin (1-54) | – | – | –
YNWNLFGLRF-NH2 (also called Compound No. 24) [[Leu5]MS10] | 0.83 nM | 1 x Metastin (1-54) | – | – | –
YNWNSFGLR[Tyr(Me)]-NH2 (also called Compound No. 18) [[Tyr(Me)10]MS10] | 7.7 nM | 1 x Metastin (1-54) | – | – | –
[dY]NSNSFGL[Arg(Me)]F-NH2 (N-terminus assumed; SMILES CNC(=N)NCCC[C@H](NC(=O)[C@H](CC(C)C)NC(=O)CNC(=O)[C@H](Cc1ccccc1)NC(=O)[C@H](CO)NC(=O)[C@H](CC(N)=O)NC(=O)[C@H](CO)NC(=O)[C@H](CC(N)=O)NC(=O)[C@H](N)Cc1ccc(O)cc1)C(=O)N[C@@H](Cc1ccccc1)C(N)=O, also called Compound No. 170) [[D-Tyr1,Ser3,Arg(Me)9]MS10] | 260 nM | 1 x Metastin (1-54) | – | – | –
YNWNSFSLRF-NH2 (also called Compound No. 101) [[Ser7]MS10] | 100 nM | 10 x Metastin (1-54) | – | – | –
YNWNSFGLRY-NH2 (also called Compound No. 109) [[Tyr10]MS10] | 23 nM | 20 x Metastin (1-54) | 2.6 EC50/MS10 EC50 | – | –
YNWNSFGLRW-NH2 (also called Compound No. 134) [[Trp10]MS10] | 110 nM | 30 x Metastin (1-54) | 0.5 EC50/MS10 EC50 | – | –
YNWNSFGLRX (Cha10; C-terminal amide, also called Compound No. 112) [[Cha10]MS10] | 370 nM | 2 x Metastin (1-54) | – | – | –
YNWNSFGXRF (Nle8; C-terminal amide, also called Compound No. 105) [[Nle8]MS10] | 880 nM | 1 x Metastin (1-54) | – | – | –
{Propanoyl(3-indol-3-yl)}-NSFGLRF-NH2 (SMILES CC(C)C[C@H](NC(=O)CNC(=O)[C@H](Cc1ccccc1)NC(=O)[C@H](CO)NC(=O)[C@H](CC(N)=O)NC(=O)CCc1c[nH]c2ccccc12)C(=O)N[C@@H](CCCNC(=N)N)C(=O)N[C@@H](Cc1ccccc1)C(N)=O, also called Compound No. 114) [des(1-3)-3-(3-Indolyl)propionyl-MS10] | 550 nM | 3 x Metastin (1-54) | 4.1 EC50/MS10 EC50 | – | –
YNWNSFGLRX (Nal(2)10; C-terminal amide, also called Compound No. 110) [[Nal(2)10]MS10] | 24 nM | 20 x Metastin (1-54) | – | – | –
YNWNSXGLRF (Cha6; C-terminal amide, also called Compound No. 156) [[Cha6]MS10] | 49 nM | 2 x Metastin (1-54) | 0.9 EC50/MS10 EC50 | – | –
YNWNSFGLXF (Har9; C-terminal amide, also called Compound No. 97) [[Har9]MS10] | 370 nM | 10 x Metastin (1-54) | 2.9 EC50/MS10 EC50 | – | –
YNWNSFGLRX (Pya(4)10; C-terminal amide, also called Compound No. 17) [[Pya(4)10]MS10] | 0.0066 nM | 5 x Metastin (1-54) | – | – | –
YNWNSFGLRX (Nal(1)10; C-terminal amide, also called Compound No. 133) [[Nal(1)10]MS10] | 330 nM | 3 x Metastin (1-54) | – | – | –
[dY][dN][4Pal]NSF[azaGly]L[Arg(Me)]F-NH2 (also called Compound No. 303) [[D-Tyr1,D-Asn2,Pya(4)3,AzaGly7,Arg(Me)9]MS10] | 0.5 nM | – | 6.9 EC50/MS10 EC50 | 41.2 nM | 5 x Metastin (1-54)
[dY]N[4Pal]NSF[azaGly]L[Arg(Me)]F-NH2 (also called Compound No. 286) [[D-Tyr1,Pya(4)3,AzaGly7,Arg(Me)9]MS10] | 17 nM | – | – | 18.3 nM | 2 x Metastin (1-54)
LPNYNWNSFGLRF-NH2 (also called Compound No. 32) [Leu-Pro-Asn-MS10] | 25 nM | 10 x Metastin (1-54) | – | – | –
YN[dW]NSFGL[Arg(Me)]F-NH2 (also called Compound No. 143) [[D-Trp3,Arg(Me)9]MS10] | 7.7 nM | 3 x Metastin (1-54) | – | – | –
YN[dW]NSFGLRF-NH2 [[D-Trp3]MS10] | – | 30 x Metastin (1-54) | 1.6 EC50/MS10 EC50 | – | –
YNWNSXGLRF (Nal(2)6; C-terminal amide, also called Compound No. 152) [[Nal(2)6]MS10] | 180 nM | 5 x Metastin (1-54) | 1.4 EC50/MS10 EC50 | – | –
[dY]NWNSFGL[Arg(Me)]F-NH2 [[D-Tyr1,Arg(Me)9]MS10] | – | – | 1.6 EC50/MS10 EC50 | 87 nM | –
YNWNSFGLR[Phe(F5)]-NH2 (also called Compound No. 111) [[Phe(F5)10]MS10] | 140 nM | 3 x Metastin (1-54) | – | – | –
YNWNSXGLRF (Nal(1)6; C-terminal amide, also called Compound No. 151) [[Nal(1)6]MS10] | 300 nM | 1 x Metastin (1-54) | – | – | –
Fmoc-WNSFGLRF-NH2 (SMILES CC(C)C[C@H](NC(=O)CNC(=O)[C@H](Cc1ccccc1)NC(=O)[C@H](CO)NC(=O)[C@H](CC(N)=O)NC(=O)[C@H](Cc1c[nH]c2ccccc12)NC(=O)OCC1c2ccccc2-c2ccccc21)C(=O)N[C@@H](CCCNC(=N)N)C(=O)N[C@@H](Cc1ccccc1)C(N)=O, also called Compound No. 54) [des(1-2)-Fmoc-MS10] | 450 nM | 5 x Metastin (1-54) | – | – | –
[dY]N[Cha]NSFGL[Arg(Me)]F-NH2 (N-terminus assumed; SMILES CNC(=N)NCCC[C@H](NC(=O)[C@H](CC(C)C)NC(=O)CNC(=O)[C@H](Cc1ccccc1)NC(=O)[C@H](CO)NC(=O)[C@H](CC(N)=O)NC(=O)[C@H](CC1CCCCC1)NC(=O)[C@H](CC(N)=O)NC(=O)[C@H](N)Cc1ccc(O)cc1)C(=O)N[C@@H](Cc1ccccc1)C(N)=O, also called Compound No. 171) [[D-Tyr1,Cha3,Arg(Me)9]MS10] | 110 nM | 10 x Metastin (1-54) | – | – | –
